{"source": "paper PMC5587741", "about": "“CLEC14a-HSP70-1A interaction regulates HSP70-1A-induced angiogenesis” (Scientific Reports, 2017)", "binders": {"B1": {"name": "recombinant human CLEC14a extracellular domain (rhCLEC14a-ECD) (domain or fragment, UniProt Q86T13 22-397, looked up)", "chain": "EHPTADRAGCSASGACYSLHHATMKRQAAEEACILRGGALSTVRAGAELRAVLALLRAGPGPGGGSKDLLFWVALERRRSHCTLENEPLRGFSWLSSDPGGLESDTLQWVEEPQRSCTARRCAVLQATGGVEPAGWKEMRCHLRANGYLCKYQFEVLCPAPRPGAASNLSYRAPFQLHSAALDFSPPGTEVSALCRGQLPISVTCIADEIGARWDKLSGDVLCPCPGRYLRAGKCAELPNCLDDLGGFACECATGFELGKDGRSCVTSGEGQPTLGGTGVPTRRPPATATSPVPQRTWPIRVDEKLGETPLVPEQDNSVTSIPEIPRWGSQSTMSTLQMSLQAESKATITPSGSVISKFNSTTSSATPQAFDSSSA", "notes": "commercially available purified recombinant human CLEC14a extracellular domain; source: bought: Abcam"}}, "biological_target": "T1, recombinant human HSP70-1A (rhHSP70-1A) (human, UniProt P0DMV8 1-641)", "T1 construct": "commercially available purified recombinant human HSP70-1A (HSPA1A); source: bought: Sino Biological Inc", "T1 sequence (P0DMV8 whole entry, the tested form may be a part)": "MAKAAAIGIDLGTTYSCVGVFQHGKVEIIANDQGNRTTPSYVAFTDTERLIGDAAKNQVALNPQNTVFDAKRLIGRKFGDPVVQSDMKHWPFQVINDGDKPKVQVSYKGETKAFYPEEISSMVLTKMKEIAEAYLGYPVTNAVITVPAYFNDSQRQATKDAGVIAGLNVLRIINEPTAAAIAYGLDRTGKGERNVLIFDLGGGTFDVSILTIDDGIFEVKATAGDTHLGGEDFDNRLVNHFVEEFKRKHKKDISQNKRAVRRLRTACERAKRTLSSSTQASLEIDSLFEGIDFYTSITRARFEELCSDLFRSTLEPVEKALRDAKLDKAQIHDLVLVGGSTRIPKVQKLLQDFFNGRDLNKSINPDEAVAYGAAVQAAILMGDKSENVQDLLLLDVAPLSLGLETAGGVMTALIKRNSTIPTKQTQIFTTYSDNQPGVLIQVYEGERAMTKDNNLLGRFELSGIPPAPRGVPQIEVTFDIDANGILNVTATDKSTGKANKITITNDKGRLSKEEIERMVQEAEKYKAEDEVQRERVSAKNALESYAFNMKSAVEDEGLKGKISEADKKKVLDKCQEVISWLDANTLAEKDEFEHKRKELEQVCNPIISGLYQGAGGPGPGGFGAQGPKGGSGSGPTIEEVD", "assay": "BLI; Octet RED96; rhCLEC14a-ECD immobilised on amine-reactive biosensors; rhHSP70-1A 200-25 nM in 2-fold dilutions in 1x kinetics buffer; 1:1 binding model", "conditions": "both partners purified"}
{"binder": "B1", "values": [{"measurement": "Kd", "result": "~8", "unit": "nM"}]}
